Measured values as given in publication PMC5897841, “Development of a multipurpose scaffold for the display of peptide loops” (Protein Engineering, Design and Selection, 2017).

How the values were obtained:
CK2α kinase (human) [1] = biological target: CK2α kinase (human) (UniProt P68400); test: ITC; itc200, 25°C, 10 mM HEPES pH 7.4, 500 mM NaCl, 0.05% P20; 50 μM titrant into 5 μM Aurora A D274N, 100 μM CK2β peptide or RAD-CK2β into 10 μM CK2α; single-site model
[2] = biological target: double His-tagged RAD-TPX2_((7–43)) F19A (Pyrococcus furiosus | human) (UniProt O74036); test: BLI; Octet RED96, Anti-Penta-HIS biosensors loaded with double His-tagged RAD-TPX2 proteins (1 μM), untagged Aurora A wild type 0-500 or 5000 nM as analyte; 50 mM HEPES pH 7.4, 500 mM NaCl, 100 mM Mg(CH3COO)2, 0.5 mM ATP, 0.5 mM TCEP, 0.05% P20; 1:1 model
[3] = biological target: double His-tagged RAD-TPX2_((7–43)), wild-type TPX2 sequence (Pyrococcus furiosus | human) (UniProt O74036); test: as above
[4] = biological target: double His-tagged RAD-TPX2_((7–43)) F16A (Pyrococcus furiosus | human) (UniProt O74036); test: as above
[5] = biological target: double His-tagged RAD-TPX2_((7–43)) D11A (Pyrococcus furiosus | human) (UniProt O74036); test: as above
[6] = biological target: double His-tagged RAD-TPX2_((7–43)) W34A (Pyrococcus furiosus | human) (UniProt O74036); test: as above
[7] = biological target: double His-tagged RAD-TPX2_((7–43)) Y8A (Pyrococcus furiosus | human) (UniProt O74036); test: as above
[8] = biological target: double His-tagged RAD-TPX2_((7–43)) F35A (Pyrococcus furiosus | human) (UniProt O74036); test: as above
[9] = biological target: double His-tagged RAD-TPX2_((7–43)) Y10A (Pyrococcus furiosus | human) (UniProt O74036); test: as above
[10] = biological target: Aurora A wild-type kinase domain (untagged) (human); test: fluorescence polarisation; fluorescence anisotropy competition: 10 nM Alexa Fluor 488-TPX2 peptide and 50 nM Aurora A wild type, RAD-TPX2 variants as competitors 195 nM-25 μM, 25°C, HEPES pH 7.4, 0.1 M Mg(CH3COO)2, 100 mM NaCl, 1 mM ATP, 1 mM DTT, 0.01% P20; Ki from the equation of Wang (1995), given as KD in Table II
[11] = biological target: Aurora A_(D274N) kinase domain (human) (UniProt O14965); test: ITC; itc200, 25°C, 10 mM HEPES pH 7.4, 500 mM NaCl, 0.05% P20; 50 μM titrant into 5 μM Aurora A D274N, 100 μM CK2β peptide or RAD-CK2β into 10 μM CK2α; single-site model
CK2α kinase (human) [12] = biological target: CK2α kinase (human) (UniProt P68400); test: AUC; sedimentation velocity, absorbance at 280 nm, 50 000 rpm, 20°C, 20 mM HEPES pH 7.5, 500 mM NaCl; single proteins and mixtures (5 μM each CK2α and RAD-CK2β; 10 μM each Aurora A D274N and RAD-TPX2)
CK2α kinase (human) [13] = biological target: CK2α kinase (human) (UniProt P68400); test: SEC; analytical Superdex 75 5/150, 20 mM HEPES pH 7.5, 500 mM NaCl; single proteins and equimolar mixture; fractions checked by SDS-PAGE
[14] = biological target: synthetic linear CK2β_((186–200)) peptide with C-terminal Gly-Cys (human) (UniProt P67870); test: SPR; Biacore T100, CM5, peptides or cRAD display proteins immobilised through their cysteine (240-400 RU), kinase as analyte 2.5 nM-2.5 μM, 25°C, 10 mM HEPES pH 7.4, 500 mM NaCl, 0.05% P20; 1:1 steady-state affinity model; CK2α data analysed at 200 s post-injection
[15] = biological target: Fluorescein-CK2β_((186–200)) peptide (human) (UniProt P67870); test: fluorescence polarisation; fluorescence anisotropy, direct titration of kinase (CK2α 2 nM-2 μM; Aurora A D274N 2 nM-1.5 μM) into labelled peptide or display protein; 10 mM HEPES pH 7.4, 500 mM NaCl, 1 mM DTT, 0.05% P20; room temperature; 1:1 model
[16] = biological target: Alexa Fluor 488-labeled cRAD-CK2β_((186–200)) (Pyrococcus furiosus | human) (UniProt O74036); test: as above

CK2α kinase, sequence (P68400 2-329): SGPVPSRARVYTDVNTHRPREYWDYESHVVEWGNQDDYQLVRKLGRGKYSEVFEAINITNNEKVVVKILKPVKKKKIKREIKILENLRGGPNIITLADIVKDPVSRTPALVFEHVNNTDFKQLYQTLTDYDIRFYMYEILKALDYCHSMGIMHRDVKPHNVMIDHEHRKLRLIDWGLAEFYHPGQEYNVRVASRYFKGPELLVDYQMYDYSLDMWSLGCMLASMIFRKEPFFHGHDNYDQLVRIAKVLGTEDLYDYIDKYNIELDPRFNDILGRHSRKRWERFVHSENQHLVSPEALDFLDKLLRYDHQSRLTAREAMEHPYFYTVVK
CK2α kinase (human), sequence (P68400 2-329): as above
Aurora A wild-type kinase domain (untagged) (human), sequence (O14965 133-383): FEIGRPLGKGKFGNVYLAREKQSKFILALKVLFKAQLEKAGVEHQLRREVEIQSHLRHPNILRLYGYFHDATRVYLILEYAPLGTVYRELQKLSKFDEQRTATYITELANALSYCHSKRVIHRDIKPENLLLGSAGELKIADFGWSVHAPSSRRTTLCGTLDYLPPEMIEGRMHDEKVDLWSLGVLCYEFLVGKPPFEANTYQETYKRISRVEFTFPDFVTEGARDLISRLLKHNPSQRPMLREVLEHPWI
Aurora A_(D274N) kinase domain (human), sequence (O14965 122-403 D274N): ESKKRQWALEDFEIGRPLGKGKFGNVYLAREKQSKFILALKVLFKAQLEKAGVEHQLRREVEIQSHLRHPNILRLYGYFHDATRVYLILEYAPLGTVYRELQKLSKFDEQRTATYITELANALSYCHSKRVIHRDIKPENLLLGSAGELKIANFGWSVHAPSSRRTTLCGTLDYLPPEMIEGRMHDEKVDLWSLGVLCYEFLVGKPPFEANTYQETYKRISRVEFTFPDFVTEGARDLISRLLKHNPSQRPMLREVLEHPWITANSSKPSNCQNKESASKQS

With “cRAD-CK2β_((186–200)) display protein (from UniProt O74036 108-287; P67870 186-200; O74036 302-349)” the Kd (CK2α kinase (human) [1]) was 140 nM.
“Aurora A wild-type kinase domain (untagged) (domain or fragment)” showed a Kd [2] of 870 nM, a Kd [3] of 46 nM and a Kd [4] of 820 nM. It also gave a Kd [5] of 1100 nM, a Kd [6] of 840 nM and a Kd [7] of 2800 nM. It also gave a Kd [8] of 1100 nM and a Kd [9] of 11 µM.
“double His-tagged RAD-TPX2_((7–43)) F35A (from UniProt O74036 108-287; Q9ULW0 7-43; O74036 302-349)” was tested, and the Kd [10] was 1110 nM.
“double His-tagged RAD-TPX2_((7–43)) F19A (from UniProt O74036 108-287; Q9ULW0 7-43; O74036 302-349)” gave a Kd [10] of 1770 nM.
“cRAD-TPX2_((7–43)) display protein (from UniProt O74036 108-287; O74036 302-349)” gave a Kd [11] of 147 nM.
Work on “synthetic linear CK2β_((186–200)) peptide (from UniProt P67870 186-200)” yielded a Kd (CK2α kinase (human) [1]) of 138 nM.
“double His-tagged RAD-TPX2_((7–43)) D11A (from UniProt O74036 108-287; Q9ULW0 7-43; O74036 302-349)” showed a Kd [10] of over 3200 nM.
“double His-tagged RAD-TPX2_((7–43)) W34A (from UniProt O74036 108-287; Q9ULW0 7-43; O74036 302-349)” showed a Kd [10] of 1170 nM.
“double His-tagged RAD-TPX2_((7–43)) Y10A (from UniProt O74036 108-287; Q9ULW0 7-43; O74036 302-349)” gave a Kd [10] of over 3200 nM.
“RAD-CK2β_((186–200)) display protein (as used in AUC and SEC) (from UniProt O74036 108-287; P67870 186-200; O74036 302-349)” showed a stoichiometry N (CK2α kinase (human) [12]) of 1 and a stoichiometry N (CK2α kinase (human) [13]) of 1.
Work on “double His-tagged RAD-TPX2_((7–43)) F16A (from UniProt O74036 108-287; Q9ULW0 7-43; O74036 302-349)” yielded a Kd [10] of 300 nM.
“CK2α kinase (from UniProt P68400 2-329) (enzyme)” was tested, and the Kd [14] was 407 nM, the Kd [15] was 348 nM and the Kd [16] was 139 nM.
“double His-tagged RAD-TPX2_((7–43)), wild-type TPX2 sequence (from UniProt O74036 108-287; O74036 302-349)” gave a Kd [10] of 2 nM.
Work on “double His-tagged RAD-TPX2_((7–43)) Y8A (from UniProt O74036 108-287; Q9ULW0 7-43; O74036 302-349)” yielded a Kd [10] of over 3200 nM.
